Data on 2 substances can be found in patent publication US20040235744A1.

Read-outs that look alike come from different tables or passages of the source.

Data set [1] addresses nNOS-II (novel constitutive neuronal nitric oxide synthase purified from rat cerebellum) (rat). As to the kind of experiment: enzyme inhibition kinetics on purified nNOS-II, competitive against BK as substrate, oxyhemoglobin assay, EZ-FIT.
The target is the same in data set [2]. Described as above. The source holds these as a separate data set.
Another data set concerns T1, BK fragment 1-7.
T1 sequence: RPPGFSP

A further data set concerns T2, Lys-BK.
T2 sequence: KRPPGFSPFR

Another data set has as its system T3, Ile-Ser-BK.
T3 sequence: ISRPPGFSPFR

In a further data set the test system is T4, [Lys^1]-BK.
T4 sequence: KPPGFSPFR

A further data set deals with T5, Cit^1-BK.
T5 sequence: XPPGFSPFR

The test system of the next data set is T6, BK fragment 1-5.
T6 sequence: RPPGF

In another data set the test system is T7, Met-Lys-BK.
T7 sequence: MKRPPGFSPFR

The test system of a further data set is T8, Des-Arg^1-BK.
T8 sequence: PPGFSPFA

Data set [3] has as its system bradykinin (Arg-Pro-Pro-Gly-Phe-Ser-Pro-Phe-Arg).
Another data set relates to T9, BK fragment 2-7.
T9 sequence: PPGFSP

As to “[N-adamantaneacetyl-D-Arg^0, Hyp^3, Thi^5,8, D-Phe^7]-BK (peptide)”, the Ki is 0.0025 mM in data set [1] and 2.5 mM in data set [2].
Take “nNOS-II (novel constitutive neuronal nitric oxide synthase purified from rat cerebellum)”: the Relative activity (%) as substrate, L-arginine = 100% with Poly-arginine (Mr 5,000) came out at 30%; with BK fragment 1-7, 80%; with Lys-BK, 116%; in the data set on Ile-Ser-BK, 110%; in data set [Lys^1]-BK it was 113%; in the data set on BK fragment 1-5, 61%. Also, the Relative activity (%) as substrate, L-arginine = 100% stood at 0% in the data set on Met-Lys-BK, 94% in the data set on Des-Arg^1-BK, 125% in data set [3] and 0% with BK fragment 2-7. The “apparent KM (NOS activity, oxyhemoglobin assay)” value in the data set on Cit^1-BK is “Apparent KM values for BK and Cit^1-BK were 8.5 and 6.2 µM, respectively”; in data set [3], “Apparent KM values for BK and Cit^1-BK were 8.5 and 6.2 µM, respectively”. Moreover, the “apparent Vmax (NOS activity, oxyhemoglobin assay)” value in the data set on Cit^1-BK was “apparent Vmax values for BK and Cit^1-BK were 1.2 and 1.6 µmol/min/mg protein, respectively”; in [3] it was “apparent Vmax values for BK and Cit^1-BK were 1.2 and 1.6 µmol/min/mg protein, respectively”.
